In patent US20240376200A1 (Seagen, published 2024):
Like-named read-outs stand apart in the source and are kept apart here.

T1: Coil 10 heavy chain peptide for CD studies (VelB L24I)
T1 construct: also called Coil 10 (L24I); L24I VelB variant
T1 peptide: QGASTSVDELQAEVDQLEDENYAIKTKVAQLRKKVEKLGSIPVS

T2: Coil 148 heavy chain peptide for CD studies (VelB L24I/V28L)
T2 construct: also called Coil 148 (L24I/V28L)
T2 peptide: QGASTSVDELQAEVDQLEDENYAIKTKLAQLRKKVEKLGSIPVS

T3: Vel heavy chain peptide for CD studies (VelB)
T3 construct: also called VelB (heavy chain) peptide; VelB1
T3 peptide: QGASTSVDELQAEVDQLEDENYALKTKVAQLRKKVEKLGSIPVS


Key:
[1] = biological target: T4, recombinant human CD47 (human, UniProt Q08722 19-139, limits assumed); assay: saturation binding ELISA
T4 construct: also called recombinant CD47 antigen

[2] = biological target: T4, recombinant human CD47; assay: saturation binding ELISA; remark: listed apart in the source
[3] = biological target: T1, Coil 10 heavy chain peptide for CD …; assay: circular dichroism thermal denaturation at 222 nm, 150 µM total peptide
[4] = circular dichroism thermal denaturation at 222 nm
[5] = biological target: T2, Coil 148 heavy chain peptide for CD …; assay: circular dichroism thermal denaturation at 222 nm, 150 µM total peptide
[6] = biological target: T3, Vel heavy chain peptide for CD studies …; assay: as above
[7] = biological target: Antigen 1 (Ab1 target) expressed on HEK293 / HEK-293F cells; assay: saturation binding FACS, HEK293 cells
[8] = biological target: recombinant Antigen 1 (recombinant Ab1 target; recombinant integrin αvβ6 antigen); assay: saturation binding ELISA
[9] = biological target: T4, recombinant human CD47; assay: saturation binding ELISA; remark: listed apart in the source

recombinant Antigen 1 (recombinant Ab1 target; recombinant integrin αvβ6 antigen), sequence (P06756 31-992, chain 1 of 2): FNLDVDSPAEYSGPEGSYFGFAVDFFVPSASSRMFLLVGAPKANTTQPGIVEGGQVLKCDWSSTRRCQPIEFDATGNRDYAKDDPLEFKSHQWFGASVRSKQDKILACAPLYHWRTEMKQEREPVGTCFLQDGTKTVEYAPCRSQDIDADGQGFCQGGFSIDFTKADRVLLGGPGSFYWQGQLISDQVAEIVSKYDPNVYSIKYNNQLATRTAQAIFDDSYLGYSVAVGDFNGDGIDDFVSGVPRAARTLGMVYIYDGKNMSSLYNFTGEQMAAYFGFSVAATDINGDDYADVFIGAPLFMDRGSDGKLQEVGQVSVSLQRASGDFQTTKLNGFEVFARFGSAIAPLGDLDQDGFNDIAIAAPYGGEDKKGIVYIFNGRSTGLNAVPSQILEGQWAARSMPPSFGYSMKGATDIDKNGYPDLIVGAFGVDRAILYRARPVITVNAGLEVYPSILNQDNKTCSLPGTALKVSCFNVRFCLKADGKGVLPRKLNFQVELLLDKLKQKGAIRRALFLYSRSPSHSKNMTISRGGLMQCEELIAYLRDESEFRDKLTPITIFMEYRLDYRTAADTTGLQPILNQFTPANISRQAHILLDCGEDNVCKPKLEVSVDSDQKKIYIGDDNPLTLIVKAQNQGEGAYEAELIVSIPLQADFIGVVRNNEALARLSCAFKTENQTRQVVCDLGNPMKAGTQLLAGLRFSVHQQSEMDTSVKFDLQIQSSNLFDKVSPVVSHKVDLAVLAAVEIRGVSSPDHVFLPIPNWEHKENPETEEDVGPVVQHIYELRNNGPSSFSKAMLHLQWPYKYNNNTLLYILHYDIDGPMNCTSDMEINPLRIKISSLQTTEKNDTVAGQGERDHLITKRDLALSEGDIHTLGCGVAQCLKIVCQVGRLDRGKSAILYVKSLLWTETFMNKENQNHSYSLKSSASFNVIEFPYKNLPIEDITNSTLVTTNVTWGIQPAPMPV
recombinant Antigen 1 (recombinant Ab1 target; recombinant integrin αvβ6 antigen), sequence (P18564 22-709, chain 2 of 2, further chain): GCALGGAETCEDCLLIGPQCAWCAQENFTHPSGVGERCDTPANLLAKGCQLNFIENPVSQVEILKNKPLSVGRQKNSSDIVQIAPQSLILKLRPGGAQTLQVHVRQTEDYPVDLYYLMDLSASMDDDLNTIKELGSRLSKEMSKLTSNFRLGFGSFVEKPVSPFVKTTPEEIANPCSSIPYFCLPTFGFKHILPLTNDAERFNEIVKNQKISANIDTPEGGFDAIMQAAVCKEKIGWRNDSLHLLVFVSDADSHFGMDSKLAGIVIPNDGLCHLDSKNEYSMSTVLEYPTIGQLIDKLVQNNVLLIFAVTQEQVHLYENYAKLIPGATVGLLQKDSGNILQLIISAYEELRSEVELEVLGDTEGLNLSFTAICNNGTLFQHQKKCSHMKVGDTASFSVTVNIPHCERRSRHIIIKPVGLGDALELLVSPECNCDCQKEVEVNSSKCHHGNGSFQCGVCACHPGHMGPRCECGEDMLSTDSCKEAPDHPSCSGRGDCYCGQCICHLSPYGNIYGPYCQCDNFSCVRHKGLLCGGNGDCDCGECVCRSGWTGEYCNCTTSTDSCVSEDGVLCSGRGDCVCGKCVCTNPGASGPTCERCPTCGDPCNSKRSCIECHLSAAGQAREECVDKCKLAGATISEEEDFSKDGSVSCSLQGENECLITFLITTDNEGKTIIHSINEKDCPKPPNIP
Antigen 1 (Ab1 target) expressed on HEK293 / HEK-293F cells, sequence (P06756 31-1048, chain 1 of 2): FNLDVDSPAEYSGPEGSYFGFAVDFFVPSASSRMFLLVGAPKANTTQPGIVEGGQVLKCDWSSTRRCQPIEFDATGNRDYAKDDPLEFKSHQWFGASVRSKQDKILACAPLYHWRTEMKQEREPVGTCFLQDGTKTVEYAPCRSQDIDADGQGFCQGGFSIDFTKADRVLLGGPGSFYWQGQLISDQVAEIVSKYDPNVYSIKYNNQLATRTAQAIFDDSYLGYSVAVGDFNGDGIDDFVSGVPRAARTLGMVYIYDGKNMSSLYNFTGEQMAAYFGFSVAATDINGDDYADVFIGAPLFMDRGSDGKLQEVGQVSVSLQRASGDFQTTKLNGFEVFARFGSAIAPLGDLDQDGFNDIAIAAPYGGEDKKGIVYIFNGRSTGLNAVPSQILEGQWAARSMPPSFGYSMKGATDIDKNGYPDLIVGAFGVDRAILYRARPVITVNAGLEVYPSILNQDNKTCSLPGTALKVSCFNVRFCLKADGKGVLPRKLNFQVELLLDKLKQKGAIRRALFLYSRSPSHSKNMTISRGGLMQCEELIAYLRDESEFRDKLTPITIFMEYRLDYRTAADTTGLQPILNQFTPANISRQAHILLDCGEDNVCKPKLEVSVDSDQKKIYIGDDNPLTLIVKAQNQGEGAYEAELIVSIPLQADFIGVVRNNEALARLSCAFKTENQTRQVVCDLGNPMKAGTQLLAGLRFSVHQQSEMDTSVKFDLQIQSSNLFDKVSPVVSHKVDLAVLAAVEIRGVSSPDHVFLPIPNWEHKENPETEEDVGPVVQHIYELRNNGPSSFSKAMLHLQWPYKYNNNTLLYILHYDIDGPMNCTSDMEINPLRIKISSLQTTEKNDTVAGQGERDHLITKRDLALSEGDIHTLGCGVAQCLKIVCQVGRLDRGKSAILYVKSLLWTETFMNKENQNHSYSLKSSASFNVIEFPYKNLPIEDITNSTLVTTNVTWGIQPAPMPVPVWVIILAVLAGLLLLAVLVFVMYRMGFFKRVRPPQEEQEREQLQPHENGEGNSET
Antigen 1 (Ab1 target) expressed on HEK293 / HEK-293F cells, sequence (P18564 22-788, chain 2 of 2, further chain): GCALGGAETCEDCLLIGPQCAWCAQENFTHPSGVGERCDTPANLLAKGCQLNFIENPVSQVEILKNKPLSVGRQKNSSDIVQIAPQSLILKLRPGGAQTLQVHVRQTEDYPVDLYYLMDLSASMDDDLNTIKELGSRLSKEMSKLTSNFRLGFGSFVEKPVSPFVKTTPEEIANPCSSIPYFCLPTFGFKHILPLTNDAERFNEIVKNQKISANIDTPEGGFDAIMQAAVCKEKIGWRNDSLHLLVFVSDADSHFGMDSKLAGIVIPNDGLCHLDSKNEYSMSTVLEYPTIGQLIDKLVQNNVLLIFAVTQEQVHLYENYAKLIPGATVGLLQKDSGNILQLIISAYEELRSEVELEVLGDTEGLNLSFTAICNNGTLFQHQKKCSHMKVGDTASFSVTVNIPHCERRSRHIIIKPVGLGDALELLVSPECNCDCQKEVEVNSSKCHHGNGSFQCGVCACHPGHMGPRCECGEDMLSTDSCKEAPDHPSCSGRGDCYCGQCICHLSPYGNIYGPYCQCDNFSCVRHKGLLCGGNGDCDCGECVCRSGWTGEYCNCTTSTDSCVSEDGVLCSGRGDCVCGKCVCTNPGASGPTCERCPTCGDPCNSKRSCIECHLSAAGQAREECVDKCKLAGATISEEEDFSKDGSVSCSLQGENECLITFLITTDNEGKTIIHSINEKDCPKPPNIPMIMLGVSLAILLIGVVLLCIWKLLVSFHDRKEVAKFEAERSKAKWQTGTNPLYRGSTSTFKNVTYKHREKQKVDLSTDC

EC50 [7] [nM]	EC50 fold change from Ab1 [7] [fold]	Binding Bmax (OD450) [8] [OD450]	EC50 [8] [nM]	EC50 fold change from Ab1 [8] [fold]	Binder	also measured
–	–	–	–	–	hB6H12.3 (unmasked anti-CD47 antibody) (antibody, V domains shown) VH: EVQLLESGGGLVQPGGSLRLSCAASGFTFSGYGMSWVRQAPGKRLEWVATITSGGTYTYYPDSVKGRFTISRDNSKNTLYLQMNSLRAEDTAIYFCARSLAGNAMDYWGQGTLVTVSS VL: EIVMTQSPDFQSVTPKEKVTLTCRASQTISDYLHWYQQKPDQSPKLLIKFASQSISGVPSRFSGSGSGSDFTLTINSLEAEDAATYYCQNGHGFPRTFGQGTKLEIKR	EC50 [1]: 2.55 nM; EC50 [2]: 2.55 nM
–	–	–	–	–	Vel-IPV-hB6H12.3 (wild-type Vel mask, Coil 1) (antibody, V domains shown) VH: EVQLLESGGGLVQPGGSLRLSCAASGFTFSGYGMSWVRQAPGKRLEWVATITSGGTYTYYPDSVKGRFTISRDNSKNTLYLQMNSLRAEDTAIYFCARSLAGNAMDYWGQGTLVTVSS VL: EIVMTQSPDFQSVTPKEKVTLTCRASQTISDYLHWYQQKPDQSPKLLIKFASQSISGVPSRFSGSGSGSDFTLTINSLEAEDAATYYCQNGHGFPRTFGQGTKLEIK	EC50 [1]: 494 nM; EC50 fold change from hB6H12.3 [1]: 194 fold
–	–	–	–	–	QGASTTVAQLEEKVKTLRAENYEAKSEVQRLEEQVAQLGSIPVS (also called Coil 10 (L24A); L24A VelA variant) [Coil 10 light chain peptide for CD studies (VelA L24A)]	Tm (melting temperature of the heterodimer) [3]: 28.6 ° C.; Tm (melting temperature of the light chain homodimer) [4]: Tm=<20 °C
–	–	–	–	–	QGASTTVAQLEEKVKTLRAENYEAKSELQRLEEQVAQLGSIPVS (also called Coil 148 (L24A/V28L)) [Coil 148 light chain peptide for CD studies (VelA L24A/V28L)]	Tm (melting temperature of the heterodimer) [5]: 39.7 ° C.; Tm (melting temperature of the light chain homodimer) [4]: Tm=<20 °C
–	–	–	–	–	QGASTTVAQLEEKVKTLRAENYELKSEVQRLEEQVAQLGSIPVS (also called VelA (light chain) peptide; VelA1) [Vel light chain peptide for CD studies (VelA)]	Tm (melting temperature of the heterodimer) [6]: 57.6 ° C.; Tm (melting temperature of the light chain homodimer) [4]: Tm=35.7 °C
–	–	–	–	–	QGASTSVDELQAEVDQLEDENYAIKTKLAQLRKKVEKLGSIPVS [Coil 148 heavy chain peptide for CD studies (VelB L24I/V28L)]	Tm (melting temperature of the heavy chain homodimer) [4]: Tm=40.8 °C
–	–	–	–	–	QGASTSVDELQAEVDQLEDENYALKTKVAQLRKKVEKLGSIPVS [Vel heavy chain peptide for CD studies (VelB)]	Tm (melting temperature of the heavy chain homodimer) [4]: Tm=23.3 °C
–	–	–	–	–	QGASTSVDELQAEVDQLEDENYAIKTKVAQLRKKVEKLGSIPVS [Coil 10 heavy chain peptide for CD studies (VelB L24I)]	Tm (melting temperature of the heavy chain homodimer) [4]: Tm=21.0 °C
152	1090	1	184	633	Vel-IPV-Ab1 Coil 115 (antibody, part only; not given: Ab1 heavy and light chains, part only) heavy, part: QGASTSVDELQAEVDQLEDENYAWKTKVAQLRKKVEKLGSIPVSLRSG light, part: QGASTTVAQLEEKVKTLRAENYEYKSEVQRLEEQVAQLGSIPVSLRSG	–
132	943	0.9	140	562	Vel-IPV-Ab1 Coil 121 (antibody, part only; not given: Ab1 heavy and light chains, part only) heavy, part: QGASTSVDELQAEVDQLEDENYAWKTKVAQLRKKVEKLGSIPVSLRSG light, part: QGASTTVAQLEEKVKTLRAENYEAKSEVQRLEEQVAQLGSIPVSLRSG	–
16.8	120	0.8	45.2	181	Vel-IPV-Ab1 Coil 118 (antibody, part only; not given: Ab1 heavy and light chains, part only) heavy, part: QGASTSVDELQAEVDQLEDENYAFKTKVAQLRKKVEKLGSIPVSLRSG light, part: QGASTTVAQLEEKVKTLRAENYESKSEVQRLEEQVAQLGSIPVSLRSG	–
14.1	10	0.6	129	517	Vel-IPV-Ab1 Coil 124 (antibody, part only; not given: Ab1 heavy and light chains, part only) heavy, part: QGASTSVDELQAEVDQLEDENYASKTKVAQLRKKVEKLGSIPVSLRSG light, part: QGASTTVAQLEEKVKTLRAENYEWKSEVQRLEEQVAQLGSIPVSLRSG	–
7.5	54	0.7	368	1270	Vel-IPV-Ab1 Coil 116 (antibody, part only; not given: Ab1 heavy and light chains, part only) heavy, part: QGASTSVDELQAEVDQLEDENYAAKTKVAQLRKKVEKLGSIPVSLRSG light, part: QGASTTVAQLEEKVKTLRAENYEFKSEVQRLEEQVAQLGSIPVSLRSG	–
–	–	–	–	–	Vel-IPV-hB6H12.3 Coil 152 (antibody, part only; not given: hB6H12.3 heavy and light chains, part only) heavy, part: QGASTSVDELQAEVDQLEDENYAHKTKVAQLRKKVEKLGSIPVSLRSG light, part: QGASTTVAQLEEKVKTLRAENYELKSEAQREEEQVAQLGSIPVSLRSG	Binding Bmax (OD450) [9]: 1.5 OD450; EC50 [9]: 31.7 nM; EC50 fold change from hB6H12.3 [9]: 12 fold
9.5	68	0.7	111	444	Vel-IPV-Ab1 Coil 126 (antibody, part only; not given: Ab1 heavy and light chains, part only) heavy, part: QGASTSVDELQAEVDQLEDENYAYKTKVAQLRKKVEKLGSIPVSLRSG light, part: QGASTTVAQLEEKVKTLRAENYESKSEVQRLEEQVAQLGSIPVSLRSG	–
–	–	–	–	–	Vel-IPV-hB6H12.3 Coil 149 (antibody, part only; not given: hB6H12.3 heavy and light chains, part only) heavy, part: QGASTSVDELQAEVDQLEDENYAIKTKIAQLRKKVEKLGSIPVSLRSG light, part: QGASTTVAQLEEKVKTLRAENYEAKSEVQRLEEQVAQLGSIPVSLRSG	Binding Bmax (OD450) [9]: 1.7 OD450; EC50 [9]: 298 nM; EC50 fold change from hB6H12.3 [9]: 117 fold
2.6	19	0.6	76.6	306	Vel-IPV-Ab1 Coil 129 (antibody, part only; not given: Ab1 heavy and light chains, part only) heavy, part: QGASTSVDELQAEVDQLEDENYASKTKVAQLRKKVEKLGSIPVSLRSG light, part: QGASTTVAQLEEKVKTLRAENYEYKSEVQRLEEQVAQLGSIPVSLRSG	–
14.5	104	0.6	85.9	344	Vel-IPV-Ab1 Coil 122 (antibody, part only; not given: Ab1 heavy and light chains, part only) heavy, part: QGASTSVDELQAEVDQLEDENYAYKTKVAQLRKKVEKLGSIPVSLRSG light, part: QGASTTVAQLEEKVKTLRAENYEAKSEVQRLEEQVAQLGSIPVSLRSG	–
144	1030	1.1	322	1110	Vel-IPV-Ab1 Coil 117 (antibody, part only; not given: Ab1 heavy and light chains, part only) heavy, part: QGASTSVDELQAEVDQLEDENYAFKTKVAQLRKKVEKLGSIPVSLRSG light, part: QGASTTVAQLEEKVKTLRAENYEWKSEVQRLEEQVAQLGSIPVSLRSG	–
–	–	–	–	–	Vel-IPV-hB6H12.3 Coil 164 (antibody, part only; not given: hB6H12.3 heavy and light chains, part only) heavy, part: QGASTSVDELQAEVDQLEDENYASKTKVAQQRKKVEKLGSIPVSLRSG light, part: QGASTTVAQLEEKVKTLRAENYERKSEVQRVEEQVAQLGSIPVSLRSG	Binding Bmax (OD450) [9]: 1.5 OD450; EC50 [9]: 21.5 nM; EC50 fold change from hB6H12.3 [9]: 8 fold
